According to US6096504A, “Maize glutathione-S-transferase enzymes” (E. I. du Pont Nemours and Company, priority 1999, dated 2000):

Assays:
Format in all cases: biochemical
Settings in all cases: purified enzyme, 0.4 mM electrophilic substrate, 4 mM glutathione, 0.1 M MOPS pH 7.0
[1] = GST conjugation of ethacrynic acid with glutathione (HPLC)
Excerpt: (§1) The GST enzymes, expressed and purified as described in Example 5 were screened for their ability to metabolize a variety of substrates. Substrates tested included the three herbicide electrophilic substrates chlorimuron ethyl, alachlor, and Atrazine, and four model electrophilic substrates, 1-chloro-2,4-dinitrobenzene (CDNB), ethacrynic acid, t-stilbene oxide, and 1,2-epoxy-3-(p-nitrophenoxy)propane. The enzymes were purified as described in Example 5 and used in the following assay.
(§2) For each enzyme, the conjugation reaction with each electrophilic substrate was performed by incubating 0.3 to 30 μg enzyme in 0.1 M MOPS (pH 7.0) containing 0.4 mM of the electrophilic substrate. The reaction was inititated by the addition of glutathione to a final concentration of 4 mM. After 5 to 30 min, the reaction was terminated by the addition of 45 μL acetonitrile, microfuged for 10 min to remove precipitated protein, and then the supernatent was removed and added to 65 μl of water. This sample was chromatographed on a Zorbax C8 reverse phase HPLC column (3 μm particle size, 6.2 mm×8 cm) using a combination of linear gradients (flow=1.5 mL/min) of 1% H3 PO4 in water (solvent A) and 1% H3 PO4 in acetonitrile. The gradient started with 5% solvent B, progressing from 5% to 75% solvent B between 1 and 10 min, and from 75% to 95% solvent B between 10 and 12 min. Control reactions without enzyme were performed to correct for uncatalyzed reaction. Quantitation of metabolites were based on an assumption that the extinction coefficient of the conjugate was identical to that of the electrophilic substrate.

[2] = GST conjugation of 1,2-epoxy-3-(p-nitrophenoxy)propane with glutathione (HPLC)
Excerpt: as §1, §2

[3] = GST conjugation of chlorimuron ethyl with glutathione (HPLC)
Excerpt: as §1, §2

[4] = GST conjugation of CDNB with glutathione (HPLC)
Excerpt: as §1, §2

[5] = GST conjugation of alachlor with glutathione (HPLC)
Excerpt: as §1, §2

[6] = GST conjugation of t-stilbene oxide with glutathione (HPLC)
Excerpt: as §1, §2

[7] = GST conjugation of Atrazine with glutathione (HPLC)
Excerpt: as §1, §2

Molecule | activity of enzyme with Ethacrynic Acid [1] | activity of enzyme with 1,2-epoxy-3-(p-nitrophenoxy)propane [2] | activity of enzyme with Chlorimuron-Ethyl [3] | activity of enzyme with CDNB [4] | activity of enzyme with Alachlor [5] | activity of enzyme with t-Stilbene Oxide [6] | activity of enzyme with Atrazine [7]
bms1.pk0023.g8: maize class I GST enzyme encoded by cDNA clone, expressed in E. coli (protein) MAPPMKVYGWAVSPWMARALVCLEEAGADYEIVPMSRCGGDHRRPEHLAKNPFGEIPVLEDGDLTLYQSRAIARYVLRKLKPELLREGDLEGSAMVDAWMEVEAHHMEPALWPIIRHSIIGQYVGRERDHQAVIDENLDRLRKVLPAYEARLSVCKYLVGDDISAADLCHFGFMRYFMATEYAGLVDAYPHVKAWWDALLARPSVQKVMAGMPPDFGYASGNIP | 13 nmol/min/mg | 0 nmol/min/mg | 0.2 nmol/min/mg | 15 nmol/min/mg | 0 nmol/min/mg | 0.00 nmol/min/mg | 0.00 nmol/min/mg
ceb5.pk0051.f8: maize class III GST enzyme encoded by cDNA clone, expressed in E. coli (protein) MAGETKKGLVLLDFWVSPFGQRCRIALAEKGIAYEYSEQELLGGAKSDILLRSNPVHKKIPVLLHDGRPVCESLVILEYLEEAFPEASPRLLPDAAYARAQARFWAAYSDKVYKAGTRLWKLRGDARAQARAEIVQVVRNLDGELGDKAFFGGEAFGFVDVALVPFVPWLPSYERYGDFSVAEIAPRLAAWARRCAQRESVARTLHPPEKVDEFINLLKKTYGIE | 117 nmol/min/mg | 14 nmol/min/mg | 1.9 nmol/min/mg | 2136 nmol/min/mg | 27 nmol/min/mg | 0.02 nmol/min/mg | 0.08 nmol/min/mg
m.15.5.d06.sk20: maize class II GST enzyme encoded by cDNA clone, expressed in E. coli (protein) MAEVEATVGRLMLYSYWRSSCSHRARIALNLKGVDYEYKAVNLLKGEQSDPEFVKLNPMKFVPALVDGSSVIGDSYAITLYLEDKYPEPPLLPQDLQKKALNHQIASIVASGIQPLHNLTVLRFIDQKVGAGESVLWTQQQIERGFTAIENLIQLKGCAGKYATGDEVQLADVFLAPQIYAAIERTKIDMSNYLTLARLHSEYMSHPAFEAALPGKQPDAPSSS | 17 nmol/min/mg | 1 nmol/min/mg | 0.1 nmol/min/mg | 45 nmol/min/mg | 0 nmol/min/mg | 0.00 nmol/min/mg | 0.00 nmol/min/mg
cs1.pk0010.c5: maize class I GST enzyme encoded by cDNA clone, expressed in E. coli (protein) MAAGLQVFGQPASTDVARVLTCLFEKKLEFELVRIDTFKTHHRLPEFIRLRDPNGQVTFKHGDKTLVDSRDICRYVCNQFPNYGNKSLYGSGALERASIEQWLQAEAQNFGPPSSALVFQLAFVPHLSHLGVRQDPAVIAENEDKLKQVLDVYDEILSKNEYLAGDEFTLADLSHLPNSHYIVNTERGRKLFTNKKNVAKWYDRLSKRETWVQVVKMQKEHPGAFK | 9 nmol/min/mg | 0 nmol/min/mg | 0.1 nmol/min/mg | 30 nmol/min/mg | 0 nmol/min/mg | 0.00 nmol/min/mg | 0.00 nmol/min/mg
ceb1.pk0017.a5: maize class I GST enzyme encoded by cDNA clone, expressed in E. coli (protein) MAAPVTVYGPMLSPAVARVAACLLEKDVPFQIEPVDMSKGEHKSPSFLKLQPFGQVPAFKDHLTTVFESRAICRYICDQYADSGNQALFGKKEDGAVGRAAIEQWIESEGQSFNPPSLAIIFQLAFAPMMGRTTDLAVVEQNEAKLAKVLDVYDQRLGESQYFAGDDFSPGRPCALAQCRFPCEQNQQGWLDHREKESC | 5 nmol/min/mg | 0 nmol/min/mg | 0.1 nmol/min/mg | 15 nmol/min/mg | 0 nmol/min/mg | 0.00 nmol/min/mg | 0.00 nmol/min/mg
ceb5.pk0049.a11: maize class III GST enzyme encoded by cDNA clone, expressed in E. coli (protein) MAEEKKQGLQLLDFWVSPFGQRCRIALDEKGLAYEYLEQDLRNKSELLLRANPVHKKIPVLLHDGRPVCESLVIVQYLDEAFPEAAPALLPADPYARAQARFWADYVDKKLYDCGTRLWKLKGDGQAQARAEMVEILRTLEGALGDGPFFGGDALGFVDVALVPFTSWFLAYDRFGGVSVEKECPRLAAWAKRCAERPSVAKNLYPPEKVYDFVCGMKKRLGIE | 102 nmol/min/mg | 30 nmol/min/mg | 0.4 nmol/min/mg | 3939 nmol/min/mg | 18 nmol/min/mg | 0.01 nmol/min/mg | 0.01 nmol/min/mg
